Data as given in the supplement of paper PMC11246515.
± gives the standard deviation of the averaged measurements.

Assay: total protein half-life in vivo (active degradation + dilution); higher = more stable protein
[1] = E. coli NCM3722 delta-clpP delta-lon delta-hslV, growth: N-lim chemostat, doubling time 6 h
[2] = E. coli NCM3722 delta-clpP, growth: N-lim chemostat, doubling time 6 h
[3] = E. coli NCM3722 delta-hslV, growth: N-lim chemostat, doubling time 6 h
[4] = E. coli NCM3722 delta-lon, growth: N-lim chemostat, doubling time 6 h
[5] = E. coli NCM3722 delta-smpB, growth: N-lim chemostat, doubling time 6 h
[6] = wild type E. coli NCM3722, growth: C-lim chemostat, doubling time 3 h
[7] = wild type E. coli NCM3722, growth: C-lim chemostat, doubling time 6 h
[8] = wild type E. coli NCM3722, growth: C-lim chemostat, doubling time 12 h
[9] = wild type E. coli NCM3722, growth: N-lim chemostat, doubling time 6 h
[10] = wild type E. coli NCM3722, growth: N-lim chemostat, doubling time 12 h
[11] = wild type E. coli NCM3722, growth: P-lim chemostat, doubling time 6 h
[12] = wild type E. coli NCM3722, growth: P-lim chemostat, doubling time 12 h

Sequence	total protein half-life in vivo [1] [h]	total protein half-life in vivo [2] [h]	total protein half-life in vivo [3] [h]	total protein half-life in vivo [4] [h]	total protein half-life in vivo [5] [h]	total protein half-life in vivo [6] [h]	total protein half-life in vivo [7] [h]	total protein half-life in vivo [8] [h]	total protein half-life in vivo [9] [h]	total protein half-life in vivo [10] [h]	total protein half-life in vivo [11] [h]	total protein half-life in vivo [12] [h]
MLNYVIKRLLGLIPTLFIVSVLVFLFVHMLPGDPARLIAGPEADAQVIELVRQQLGLDQPLYHQFWHYISNAVQGDFGLSMVSRRPVADEIASRFMPTLWLTITSMVWAVIFGMAAGIIAAVWRNRWPDRLSMTIAVSGISFPAFALGMLLIQVFSVELGWLPTVGADSWQHYILPSLTLGAAVAAVMARFTRASFVDVLSEDYMRTARAKGVSETWVVLKHGLRNAMIPVVTMMGLQFGFLLGGSIVVEKVFNWPGLGRLLVDSVEMRDYPVIQAEILLFSLEFILINLVVDVLYAAINPAIRYK	6.23 ± 0.21	5.94 ± 1	6.89 ± 0.77	6.12 ± 1.5	5.48 ± 0.069	3.13 ± 0.44	6.58 ± 0.59	11.4 ± 1.1	5.84 ± 0.41	11.1 ± 0.85	5.68	12.6 ± 1.1
MLPPYFLFKEMTDTQYIGRFAPSPSGELHFGSLIAALGSYLQARARQGRWLVRIEDIDPPREVPGAAETILRQLEHYGLHWDGDVLWQSQRHDAYREALAWLHEQGLSYYCTCTRARIQSIGGIYDGHCRVLHHGPDNAAVRIRQQHPVTQFTDQLRGIIHADEKLAREDFIIHRRDGLFAYNLAVVVDDHFQGVTEIVRGADLIEPTVRQISLYQLFGWKVPDYIHLPLALNPQGAKLSKQNHAPALPKGDPRPVLIAALQFLGQQAEAHWQDFSVEQILQSAVKNWRLTAVPESAIVNSTFSNASC	–	3.9	–	5.27	3.67 ± 0.12	3.26 ± 0.7	5.73	3.64	3.84	–	4.7	9.87 ± 0.39
MLPSISINNTSAAYPESINENNNDEVNGLVQEFKNLFNGKEGISTCIKHLLELIKNAIRVNDDPYRFNINNSSVTYIDIDSNDTDHITIGIDNQEPIELPANYKDKELVRTIINDNIVEKTHDINNKEMIFSALKEIYDGDPGFIFDKISHKLRHTVTEFDESGKSEPTDLFTWYGKDKKGDSLAIVIKNKNGNDYLSLGYYDQDDYHIQRGIRINGDSLTQYCSENARSASAWFESSKAIMAESFATGSDHQVVNELNGERLREPNDVFKRYGRAIRYDFQVDDAKYKCDHLKEIVSTLVGNKINVGHSQKIYKHFKDLEGKIEERLQNRQAEYQNEINQPSAPGVNFDDI	–	–	–	–	–	–	–	–	5.3	–	–	–
MLQHYSVSWKKGLAALCLLAVAGLSGCDQQENAAAKVEYDGLSNSQPLRVDANNHTVTMLVQINGRFLTDDTRHGIVFKDGSNGHKSLFMGYATPKAFYEALKEAGGTPGENMTMDNKETTHVTGSKLDISVNWQGAAKAYSFDEVIVDSNGKKLDMRFGGNLTAAEEKKTGCLVCLDSCPVGIVSNATYTYGAVEKRGEVKFKGNASVLPADNTLATVTFKIAE	5.59 ± 0.95	6.08 ± 0.12	6.34 ± 0.64	6.31 ± 0.53	6.66 ± 0.39	2.87 ± 0.32	6.91 ± 0.16	–	6.55 ± 0.35	12.4 ± 0.69	4.96 ± 0.71	14.84 ± 0.069
MLQIIRGKLVIFLITLCLFVVYLGFDNNSNSDIVFYGHKTPKSVEIYLSEKNIIYKIINDQKISRGNGHFISIMVNNYRTHCGVVDINLNFFNDILYSVRLKNISKLENMEFCATKQRVYFSDKNKKASYKIINYGDYYDVDYYDNNLKNEVFDWIGKWS	–	–	–	–	–	2.67	4.29	–	–	–	2.67	7
MLQLLLAVFIGGGTGSVARWLLSMRFNPLHQAIPLGTLTANLIGAFIIGIGFAWFSRMTNIDPVWKVLITTGFCGGLTTFSTFSAEVVFLLQEGRFGWALLNVFVNLLGSFAMTALAFWLFSASTAH	–	–	5.83	–	–	–	–	–	–	–	–	–
MLQNCAQSNCRIIPKKLRDMKREEICRLLADKVNKLKNKENSLSGLLPDVRLLYGETPFARTPVMYEPGIIILFSGHKIGYINERVFRYDANEYLLLTVPLPFECETYATSEVPLAGLRLNVDILQLQELLMDIGEDEHFQPSMAASGINSATLSEEILCAAERLLDVMERPLDARILGKQIIREILYYVLTGPCGGALLALVSRQTHFSLISRVLKRIENKYTENLSVEQLAAEANMSVSAFHHNFKSVTSTSPLQYLKNYRLHKARMMIIHDGMKASAAAMRVGYESASQFSREFKRYFGVTPGEDAARMRAMQGN	5 ± 0.43	3.07 ± 0.072	2.48 ± 0.13	4.33 ± 0.18	2.432 ± 0.0042	2.08 ± 0.1	3.87 ± 0.56	4.94	2.98	3.71 ± 0.24	2.74	4.35 ± 0.82
MLQNPIHLRLERLESWQHVTFMACLCERMYPNYAMFCQQTGFGDGQIYRRILDLIWETLTVKDAKVNFDSQLEKFEEAIPSADDFDLYGVYPAIDACVALSELVHSRLSGETLEHAVEVSKTSITTVAMLEMTQAGREMSDEELKENPAVEQEWDIQWEIFRLLAECEERDIELIKGLRADLREAGESNIGIIFQQ	5.09 ± 0.47	5.16 ± 0.66	4.79 ± 0.12	5.23 ± 0.55	4.12 ± 1.1	3.1 ± 0.088	5.93 ± 0.21	–	4.84 ± 0.12	8.11 ± 0.86	6.28 ± 0.52	13.7 ± 1.8
MLRIIDTETCGLQGGIVEIASVDVIDGKIVNPMSHLVRPDRPISPQAMAIHRITEAMVADKPWIEDVIPHYYGSEWYVAHNASFDRRVLPEMPGEWICTMKLARRLWPGIKYSNMALYKTRKLNVQTPPGLHHHRALYDCYITAALLIDIMNTSGWTAEQMADITGRPSLMTTFTFGKYRGKAVSDVAERDPGYLRWLFNNLDSMSPELRLTLKHYLENT [P0AEK0]	5.44 ± 2	1.56 ± 0.12	1.2033 ± 0.0011	2.29 ± 0.6	0.987 ± 0.0014	1.24 ± 0.16	2 ± 0.16	2.32	1.37 ± 0.12	2.04 ± 0.23	1.52 ± 0.42	3.43
